The target in test [1] is CUL2^AMCA•RBX1 preassembled with VBC (UniProt Q13617). Nature of the test: FRET or BRET. (In BRET a luciferase serves as donor, and the signal depends on an acceptor being close.)
The target of test [2] is ^GSTCAND1 from bacterial cells (UniProt Q86VP6). Description: pull-down.
The target in test [3] is ^GSTCAND1 from insect cells (UniProt Q86VP6). Nature of the test: pull-down.
Sequence of ^GSTCAND1 from insect cells (Q86VP6 whole entry): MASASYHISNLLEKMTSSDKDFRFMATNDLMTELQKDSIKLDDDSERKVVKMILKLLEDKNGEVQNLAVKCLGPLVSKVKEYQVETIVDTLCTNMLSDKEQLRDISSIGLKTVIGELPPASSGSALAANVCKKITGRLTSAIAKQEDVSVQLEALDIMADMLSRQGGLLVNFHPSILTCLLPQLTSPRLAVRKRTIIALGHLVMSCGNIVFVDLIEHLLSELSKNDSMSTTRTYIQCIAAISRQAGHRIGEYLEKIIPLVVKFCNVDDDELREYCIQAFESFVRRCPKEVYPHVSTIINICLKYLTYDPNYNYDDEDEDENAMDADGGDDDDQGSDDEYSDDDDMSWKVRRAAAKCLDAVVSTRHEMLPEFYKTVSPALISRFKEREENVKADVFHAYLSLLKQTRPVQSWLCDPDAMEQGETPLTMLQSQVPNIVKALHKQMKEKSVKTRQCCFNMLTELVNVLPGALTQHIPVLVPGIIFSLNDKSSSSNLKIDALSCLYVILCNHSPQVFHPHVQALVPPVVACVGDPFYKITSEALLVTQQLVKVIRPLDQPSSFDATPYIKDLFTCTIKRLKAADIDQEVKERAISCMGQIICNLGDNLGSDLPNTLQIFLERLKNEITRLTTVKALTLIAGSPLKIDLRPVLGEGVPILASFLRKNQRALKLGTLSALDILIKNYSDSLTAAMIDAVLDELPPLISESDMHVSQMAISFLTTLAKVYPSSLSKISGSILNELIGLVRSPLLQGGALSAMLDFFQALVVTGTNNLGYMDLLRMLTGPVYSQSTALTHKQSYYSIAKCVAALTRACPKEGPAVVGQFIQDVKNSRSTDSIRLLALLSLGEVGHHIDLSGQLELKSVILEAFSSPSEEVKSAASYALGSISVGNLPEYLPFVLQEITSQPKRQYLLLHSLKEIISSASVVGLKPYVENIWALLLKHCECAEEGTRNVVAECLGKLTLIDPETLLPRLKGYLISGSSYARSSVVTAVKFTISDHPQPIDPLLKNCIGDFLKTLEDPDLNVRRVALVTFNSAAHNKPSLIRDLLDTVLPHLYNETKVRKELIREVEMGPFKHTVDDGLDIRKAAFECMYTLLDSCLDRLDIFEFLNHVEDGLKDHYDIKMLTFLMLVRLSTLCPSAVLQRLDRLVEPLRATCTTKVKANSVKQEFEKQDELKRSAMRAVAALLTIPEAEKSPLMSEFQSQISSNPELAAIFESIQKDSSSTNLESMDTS

Sequence of RBX1•^StrepIICUL2^FL (Q13617 whole entry): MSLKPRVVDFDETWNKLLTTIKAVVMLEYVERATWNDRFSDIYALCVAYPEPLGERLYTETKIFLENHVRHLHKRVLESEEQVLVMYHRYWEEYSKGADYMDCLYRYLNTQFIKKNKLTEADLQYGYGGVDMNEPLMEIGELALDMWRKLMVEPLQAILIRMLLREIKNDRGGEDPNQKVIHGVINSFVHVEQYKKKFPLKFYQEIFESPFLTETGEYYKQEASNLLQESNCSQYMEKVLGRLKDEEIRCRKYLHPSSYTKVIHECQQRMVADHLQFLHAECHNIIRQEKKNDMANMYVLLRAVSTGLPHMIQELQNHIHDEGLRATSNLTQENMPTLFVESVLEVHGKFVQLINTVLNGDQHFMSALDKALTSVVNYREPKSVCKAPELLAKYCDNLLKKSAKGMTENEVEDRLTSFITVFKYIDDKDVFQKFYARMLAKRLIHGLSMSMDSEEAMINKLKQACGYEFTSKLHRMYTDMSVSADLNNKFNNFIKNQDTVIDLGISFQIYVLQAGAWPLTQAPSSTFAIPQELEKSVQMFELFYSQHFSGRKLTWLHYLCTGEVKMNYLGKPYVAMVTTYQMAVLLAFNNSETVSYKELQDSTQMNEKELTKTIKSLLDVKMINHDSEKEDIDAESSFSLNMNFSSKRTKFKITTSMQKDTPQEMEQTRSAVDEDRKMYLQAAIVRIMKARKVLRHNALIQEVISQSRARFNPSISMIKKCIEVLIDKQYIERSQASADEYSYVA
Sequence of RBX1•^StrepIICUL2^FL (P62877 whole entry): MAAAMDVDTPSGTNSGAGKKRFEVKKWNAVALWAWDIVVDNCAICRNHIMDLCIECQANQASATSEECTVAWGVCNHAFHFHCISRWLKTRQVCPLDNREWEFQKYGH
Sequence of ^FlAsHCAND1 from insect cells (Q86VP6 whole entry): as the sequence (Q86VP6 whole entry) above
Sequence of ^GSTCAND1 from bacterial cells (Q86VP6 whole entry): as above

For orientation: kon means the rate constant with which the complex forms. A higher kon goes with fast association. For “^FlAsHCAND1 from insect cells (from UniProt Q86VP6 1-1230) (natural protein)”, in test [1], the kon came out at 9.8e+07 M⁻¹ s⁻¹.
Turning to “RBX1•^StrepIICUL2^FL (from UniProt Q13617 1-745; P62877 1-108) (complex)”, the t1/2 of dissociation was found to be 3.5 min in test [2] and 16 min in test [3].

These data come from paper PMC10923007.
